{"source": "FireProtDB (doi:10.1002/prot.20496)", "conditions": "Capra hircus, pH 7.5, Thermal, Tris-HCl 10 mM, CaCl2 2 mM, whole UniProt chain shown", "note": "Where “and” joins values, the source holds several entries; their conditions need not be identical. Identical values can stand only once."}
{"protein": "Alpha-lactalbumin wild type, P00712 (protein) MMSFVSLLLVGILFHATQAEQLTKCEVFQKLKDLKDYGGVSLPEWVCTAFHTSGYDTQAIVQNNDSTEYGLFQINNKIWCKDDQNPHSRNICNISCDKFLDDDLTDDIVCAKKILDKVGINYWLAHKALCSEKLDQWLCEKL", "values": [{"measurement": "Tm", "setting": "DSC", "value": "71 °C and 71.1 °C"}, {"measurement": "Tm", "setting": "Fluorescence", "value": "70.7 °C and 71.2 °C and 69.9 °C"}]}
